{"source": "patent US20120189542A1", "about": "(published 2012)", "biological_target": "T1, human CD19 on CD19+ human lymphoma cells (Raji, Daudi, Ramos) (human, UniProt P15391 20-556)", "T1 construct": "whole, on cells; The target is presented on cells; also called CD19 antigen; CD19 molecule", "T1 sequence (looked up)": "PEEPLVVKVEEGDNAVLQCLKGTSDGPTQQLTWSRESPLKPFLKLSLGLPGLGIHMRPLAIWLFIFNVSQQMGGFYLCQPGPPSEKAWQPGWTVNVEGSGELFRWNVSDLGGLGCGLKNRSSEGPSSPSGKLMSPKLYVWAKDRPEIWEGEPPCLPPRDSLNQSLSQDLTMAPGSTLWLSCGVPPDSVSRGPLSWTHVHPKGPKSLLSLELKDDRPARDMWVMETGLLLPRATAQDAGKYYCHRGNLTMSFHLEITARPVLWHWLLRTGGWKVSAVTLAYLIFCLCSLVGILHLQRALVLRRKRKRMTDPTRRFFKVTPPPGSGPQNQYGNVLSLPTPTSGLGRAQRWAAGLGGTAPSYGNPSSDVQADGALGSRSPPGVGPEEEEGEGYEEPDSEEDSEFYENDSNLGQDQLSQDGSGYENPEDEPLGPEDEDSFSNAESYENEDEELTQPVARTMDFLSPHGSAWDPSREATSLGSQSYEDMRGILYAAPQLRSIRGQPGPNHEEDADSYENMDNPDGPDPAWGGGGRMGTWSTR", "assay": "direct cell surface binding of 125I-labeled antibody to Raji cells, Scatchard plot analysis", "data": [{"binder": "humanized anti-CD19 antibody hA19 (antibody, V domains shown, It was expressed from pdHL2, which carries human IgG heavy and light chain constant regions (IgG1 per the general description); also called humanized A19 antibody) VH: QVQLQQSGAEVKKPGSSVKVSCKASGYAFSSYWMNWVRQRPGQGLEWIGQIWPGDGDTNYNGKFKGRATITADESTNTAYMELSSLRSEDTAFYSCARRETTTVGRYYYAMDYWGQGTTVTVSS VL: DIQLTQSPSSLSASVGDRVTITCKASQSVDYDGDSYLNWYQQIPGKAPKLLIYDASNLVSGIPPRFSGSGSGTDYTFTISSLQPEDIATYHCQQSTEDPWTFGGGTKLQIKR", "values": [{"measurement": "Kd", "value": 1.1, "unit": "nM"}]}]}
